For assay [1], the target named is T1, VAPA 1-242 expressed from pEGFP-N1-VAPA; 1-242 (Addgene #18874) in HEK293 cells (UniProt Q9Z270 1-242).
T1 construct: range 1-242; Used as a whole lysate of transfected HEK293 cells (1 mg/ml total protein), detected with anti-VAPA antibody; also called VAMP-associated protein A; VAPA proteins; not shown: EGFP implied by the vector name pEGFP-N1
T1 sequence (looked up): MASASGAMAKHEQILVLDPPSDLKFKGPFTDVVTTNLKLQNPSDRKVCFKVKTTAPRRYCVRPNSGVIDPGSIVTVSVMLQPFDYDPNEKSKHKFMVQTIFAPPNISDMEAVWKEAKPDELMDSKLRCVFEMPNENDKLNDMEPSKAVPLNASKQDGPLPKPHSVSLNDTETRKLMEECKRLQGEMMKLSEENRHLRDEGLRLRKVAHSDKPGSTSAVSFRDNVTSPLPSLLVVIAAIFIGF
Put plainly: peptide spot array (far western) with lysate of HEK293 cells expressing VAPA 1-242, anti-VAPA detection. As for the experimental part:
Standard 9-fluorenylmethoxy carbonyl chemistry was used to synthesize peptides and spot them onto Celluspots nitrocellulose disks prederivatized with a polyethylene glycerol spacer (Intavis), using the Respep peptide synthesizer. The peptides were spotted on 20 membranes fitted on microscope glass slides (Intavis) using an Intavis MultiPep robot. For hybridization and immunoblotting of arrays, Celluspots slides were washed in TBST (50 mM Tris-HCl, pH 7.4, 150 mM NaCl, 0.1% Tween 20) for 10 minutes, […] blocked for 1 hour at room temperature (RT) with gentle shaking in TBST containing 5% nonfat dry milk. Lysates from HEK293 cells transfected as before (Yeh et al., J Neurosci. 37: 5648-5658, 2017; Yeh et al., Proc Natl Acad Sci USA. 116: 15696-15607, 2019; Dustrude et al., Proc Natl Acad Sci USA. 113: E8443-E8452, 2016) with pEGFP-N1-VAPA; 1-242 (Addgene #18874) were made in 20 mM Tris, 50 mM NaCl, 2 mM MgCl₂, 1% Tergitol, 0.5% sodium deoxycholate, 0.1% sodium dodecyl sulfate with protease (Cat #B14002, Bimake), phosphatase (Cat #B15002, Bimake) inhibitor cocktails and 5 U/ml of universal nuclease (Cat #88702, Thermofisher) added extemporaneously. The concentration of lysates was measured by BCA (Cat #23227, Thermofisher) and peptide arrays were incubated with 1 mg/ml of total protein overnight at 4° C. (Yeh et al., J Neurosci. 37: 5648-5658, 2017; Yeh et al., Proc Natl Acad Sci USA. 116: 15696-15607, 2019; Moutal et al., Pain. 158: 2203-2221, 2017). Peptide arrays were washed 3 times for 5 minutes at RT with TBST and incubated with the primary antibody anti-VAPA (RRID AB_2722707; UC Davis/NIH NeuroMab Facility) for 2 hours at RT with gentle shaking in TBST, 5% BSA. After washing with TBST, the membranes were incubated in secondary antibody (IRDye® 800CW goat anti-mouse IgG secondary antibody; RRID AB_621842; Li-Cor) for 45 minutes, washed 3 times for 5 minutes in TBST, and visualized by infrared fluorescence (Li-Cor). Four independent peptide spot arrays were used in this study. Fluorescence intensity was analyzed with Image studio (Li-Cor).

Assay [2] deals with T2, Kv2.1 (endogenous, rat cortical neurons) (rat, UniProt P15387 1-857).
T2 construct: Endogenous channel in fixed, permeabilised primary cortical neurons of Sprague-Dawley rats, detected with a rabbit anti-Kv2.1 antibody; also called delayed-rectifying voltage-gated potassium channel Kv2.1
T2 sequence: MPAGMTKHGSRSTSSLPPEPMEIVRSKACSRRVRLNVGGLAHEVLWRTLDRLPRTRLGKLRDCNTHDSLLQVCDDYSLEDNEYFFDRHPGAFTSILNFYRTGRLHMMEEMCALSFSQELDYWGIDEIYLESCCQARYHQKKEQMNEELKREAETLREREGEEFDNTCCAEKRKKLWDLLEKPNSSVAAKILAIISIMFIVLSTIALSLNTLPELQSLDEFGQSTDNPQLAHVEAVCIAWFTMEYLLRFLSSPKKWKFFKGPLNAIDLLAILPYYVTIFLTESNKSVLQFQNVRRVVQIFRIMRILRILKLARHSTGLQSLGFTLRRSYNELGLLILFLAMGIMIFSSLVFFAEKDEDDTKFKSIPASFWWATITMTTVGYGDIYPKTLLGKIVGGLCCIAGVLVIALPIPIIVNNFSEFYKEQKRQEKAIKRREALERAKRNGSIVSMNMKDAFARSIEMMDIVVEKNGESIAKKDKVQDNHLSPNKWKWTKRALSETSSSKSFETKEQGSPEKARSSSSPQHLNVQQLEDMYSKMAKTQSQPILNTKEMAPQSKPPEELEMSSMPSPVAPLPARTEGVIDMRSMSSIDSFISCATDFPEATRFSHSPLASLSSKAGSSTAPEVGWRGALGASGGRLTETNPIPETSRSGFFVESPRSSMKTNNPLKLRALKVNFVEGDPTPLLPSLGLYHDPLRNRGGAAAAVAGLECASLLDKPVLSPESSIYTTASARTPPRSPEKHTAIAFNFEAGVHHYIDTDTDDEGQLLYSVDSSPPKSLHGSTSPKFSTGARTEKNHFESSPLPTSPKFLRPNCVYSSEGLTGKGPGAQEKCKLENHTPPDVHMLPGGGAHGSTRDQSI
The assay is described as follows: proximity ligation assay in fixed rat cortical neurons. As for the experimental part:
Duolink proximity ligation assay (PLA) technology (Sigma-Aldrich, St. Louis, Mo.) was utilized to assess in situ protein-protein interaction between Kv2.1 and vesicle-associated molecular protein (VAMP)-associated protein A (VAPA). Primary cortical neurons on glass coverslips were treated in 24-well plates with vehicle (dH₂O), TAT-Sc-2 (10 μM), or TAT-DP-2 (10 μM) for 2 hours at 37° C./5% CO₂. Neurons were then rinsed with 2 mL ice-cold sterile PBS and then transferred to 1 mL 4% paraformaldehyde (PFA) in PBS for 20 minutes to fix. Coverslips were transferred to 1 mL 0.1 M glycine (in PBS) to quench fixation and rinsed three times in 1 mL PBS. Membrane permeabilization was accomplished with 1 mL 0.25% Triton X-100 (Sigma-Aldrich, St. Louis, Mo.) and non-specific binding was blocked with 10% bovine serum albumin (in PBS) for 30 minutes. Primary immunolabeling was accomplished by 18-24 hour exposure to rabbit anti-Kv2.1 polyclonal antibody (1:500 in 3% BSA; RRID AB_2040162; Alomone Labs, Jerusalem, Israel), mouse anti-VAPA monoclonal antibody (1:500 in 3% BSA; RRID AB_2722702; UC Davis/NeuroMab Facility), and chicken anti-MAP2 polyclonal antibody (1:1000 in 3% BSA; RRID AB_5392; Abcam, Cambridge, Mass.) in 3% BSA (in PBS) at 4° C. under gentle agitation. […]

B1: non-canonical FFAT motif of Kv2.1 (SFISCAT) (peptide)
peptide: SFISCAT
notes: The text says it was tested on the peptide array
B1: the binding result in assay [1] was “no binding (tested: lysate at 1 mg/ml of total protein)”.
Consider SFTSCAT [non-canonical FFAT motif of Kv2.2 (SFTSCAT)], for which the binding result in assay [1] was “no binding (tested: lysate at 1 mg/ml of total protein)”.

B2: VAPA (endogenous, rat cortical neurons) (other, UniProt Q9Z270 2-249, looked up)
chain: ASASGAMAKHEQILVLDPPSDLKFKGPFTDVVTTNLKLQNPSDRKVCFKVKTTAPRRYCVRPNSGVIDPGSIVTVSVMLQPFDYDPNEKSKHKFMVQTIFAPPNISDMEAVWKEAKPDELMDSKLRCVFEMPNENDKLNDMEPSKAVPLNASKQDGPLPKPHSVSLNDTETRKLMEECKRLQGEMMKLSEENRHLRDEGLRLRKVAHSDKPGSTSAVSFRDNVTSPLPSLLVVIAAIFIGFFLGKFIL
notes: whole, on cells; Endogenous ER protein inside fixed, permeabilised neurons, detected with a mouse anti-VAPA antibody; also called VAMP-associated protein A
As to B2, the binding result in assay [2] is given as “binds”.

B3: DP-2 peptide (SIDSFTS) (peptide)
peptide: SIDSFTS
notes: Synthesised and spotted on Celluspots membrane through a polyethylene glycerol spacer (peptide spot array); also called declustering peptide 2
B3: the binding result in assay [1] was “no binding (tested: lysate at 1 mg/ml of total protein)”.
As for SIDSFTD [Ser to Asp mutant of DP-2 (SIDSFTD)], the binding result in assay [1] is “no binding (tested: lysate at 1 mg/ml of total protein)”.
As to EIDSFTE [Ser to Glu mutant of DP-2 (EIDSFTE)], in assay [1], the binding result was “no binding (tested: lysate at 1 mg/ml of total protein)”.
As to DIDSFTS [Ser to Asp mutant of DP-2 (DIDSFTS)], the binding result in assay [1] is reported as “no binding (tested: lysate at 1 mg/ml of total protein)”.
Take SIDDFTS [Ser to Asp mutant of DP-2 (SIDDFTS)]: the binding result in assay [1] is on record as “no binding (tested: lysate at 1 mg/ml of total protein)”.
For DIDDFTD [Ser to Asp mutant of DP-2 (DIDDFTD)], in assay [1], the binding result is “no binding (tested: lysate at 1 mg/ml of total protein)”.
Consider SIDEFTE [Ser to Glu mutant of DP-2 (SIDEFTE)], for which, in assay [1], the binding result was “no binding (tested: lysate at 1 mg/ml of total protein)”.
Still for that read-out and setting: for DIDDFTS [Ser to Asp mutant of DP-2 (DIDDFTS)] the value was “no binding (tested: lysate at 1 mg/ml of total protein)”; for SIDEFTS [Ser to Glu mutant of DP-2 (SIDEFTS)], “no binding (tested: lysate at 1 mg/ml of total protein)”.
Regarding SIDDFTD [Ser to Asp mutant of DP-2 (SIDDFTD)], in assay [1], the binding result is listed as “no binding (tested: lysate at 1 mg/ml of total protein)”.
For the molecule DIDSFTD [Ser to Asp mutant of DP-2 (DIDSFTD)], the binding result in assay [1] is reported as “no binding (tested: lysate at 1 mg/ml of total protein)”.
As for SIDSFTE [Ser to Glu mutant of DP-2 (SIDSFTE)], the binding result in assay [1] is recorded as “no binding (tested: lysate at 1 mg/ml of total protein)”.
As for EIDEFTE [Ser to Glu mutant of DP-2 (EIDEFTE)], the binding result in assay [1] is reported as “no binding (tested: lysate at 1 mg/ml of total protein)”.
For EIDEFTS [Ser to Glu mutant of DP-2 (EIDEFTS)], in assay [1], the binding result is “no binding (tested: lysate at 1 mg/ml of total protein)”.
In the case of EIDSFTS [Ser to Glu mutant of DP-2 (EIDSFTS)], in assay [1], the binding result was “no binding (tested: lysate at 1 mg/ml of total protein)”.
